From patent publication US20200087373A1 (UNIVERSITY OF COPENHAGEN, published 2020)
Ends that are not written are not given here. * marks the point of attachment. C16 diacid = O=C(O)CCCCCCCCCCCCCCC(=O)*; Stearoyl = CCCCCCCCCCCCCCCCCC(=O)*; Palmitoyl = CCCCCCCCCCCCCCCC(=O)*; Myristoyl = CCCCCCCCCCCCCC(=O)*; Lauroyl = CCCCCCCCCCCC(=O)*

T1: human GIP receptor (human, UniProt P48546 22-466)
T1 sequence (looked up): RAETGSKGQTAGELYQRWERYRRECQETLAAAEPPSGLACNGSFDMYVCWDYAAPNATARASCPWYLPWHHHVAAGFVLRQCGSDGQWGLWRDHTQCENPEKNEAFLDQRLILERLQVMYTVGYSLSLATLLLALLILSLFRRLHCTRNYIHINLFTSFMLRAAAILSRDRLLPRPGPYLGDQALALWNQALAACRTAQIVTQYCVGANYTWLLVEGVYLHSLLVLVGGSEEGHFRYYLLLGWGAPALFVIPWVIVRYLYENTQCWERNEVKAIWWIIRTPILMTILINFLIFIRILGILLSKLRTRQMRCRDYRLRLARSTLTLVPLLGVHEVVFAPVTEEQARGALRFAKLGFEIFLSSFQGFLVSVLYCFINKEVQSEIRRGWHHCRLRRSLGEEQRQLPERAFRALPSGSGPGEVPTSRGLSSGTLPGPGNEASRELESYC


How the values were obtained:
[1] = target: T1, human GIP receptor; assay: cell-based or functional assay
[2] = target: T1, human GIP receptor; assay: 125I-hGIP(1-42) competition binding, COS-7 cells expressing human GIPR
Experimental: (§1) After incubation, the cells were washed twice in ice-cold binding buffer (+/−2% HSA) and lysed using 200 mM NaOH with 1% SDS for 30 min. Nonspecific binding was determined as the binding of radioactive ligand to untransfected cells.

[3] = target: T1, human GIP receptor; assay: 125I-hGIP competition binding on hGIPR COS-7 cells; fold in affinity, paired, reference taken as GIP(3-30)NH2
Experimental: as §1

[4] = target: T1, human GIP receptor; assay: cell-based or functional assay; remark: listed apart in the source
[5] = target: T1, human GIP receptor; assay: 125I-hGIP(1-42) competition binding, COS-7 cells expressing human GIPR, with 2% HSA;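 note: nonspecific signal taken as radioligand bound to untransfected cells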
Experimental: as §1

[6] = target: T1, human GIP receptor; assay: 125I-hGIP(1-42) competition binding, COS-7 cells expressing human GIPR, without HSA;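 note: nonspecific binding defined as radioligand bound to cells lacking the transfected receptor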
Experimental: as §1

[7] = target: T1, human GIP receptor; assay: ratio of Ki with 2% HSA to Ki without HSA, 125I-hGIP competition binding on hGIPR COS-7 cells;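 note: nonspecific binding was defined as radioligand signal on cells lacking the receptor transfection, with cell lysates measured after washes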
Experimental: as §1

Row | Binder | cAMP - antagonisme IC50 [1] [nM] | cAMP - antagonisme fold (paired) [1] [fold] | IC50 [2] [nM] | fold (paired) [3] [fold] | cAMP accumulation Fold (fold change from GIP(5-30)NH2) [4] [fold] | cAMP accumulation IC50 [4] [nM] | cAMP accumulation logIC50 [4] | Ki [5] [nM] | Ki [6] [nM] | Fold (Ki + HSA / Ki - HSA) [7] [fold]
1 | EGTFISDYSIAMDK(Palmitoyl)IHQQDFVNWLLAQK-NH2 [AT105 [hGIP(3-30)NH2-C16/16]] | 23.8 | 3.4 | 522 | 34 |  |  |  |  |  | 
2 | Lauroyl-EGTFISDYSIAMDKIHQQDFVNWLLAQK-NH2 [AT101 [hGIP(3-30)NH2-C12/3]] |  |  | 9.9 | 0.7 |  |  |  |  |  | 
3 | EGWFISDYSIAMEK(Palmitoyl)IAQQDFVNWLLAQK-NH2 (N-terminus assumed; SMILES CCCCCCCCCCCCCCCC(=O)NCCCC[C@H](NC(=O)[C@H](CCC(=O)O)NC(=O)[C@H](CCSC)NC(=O)[C@H](C)NC(=O)[C@@H](NC(=O)[C@H](CO)NC(=O)[C@H](Cc1ccc(O)cc1)NC(=O)[C@H](CC(=O)O)NC(=O)[C@H](CO)NC(=O)[C@@H](NC(=O)[C@H](Cc1ccccc1)NC(=O)[C@H](Cc1c[nH]c2ccccc12)NC(=O)CNC(=O)[C@@H](N)CCC(=O)O)[C@@H](C)CC)[C@@H](C)CC)C(=O)N[C@H](C(=O)N[C@@H](C)C(=O)N[C@@H](CCC(N)=O)C(=O)N[C@@H](CCC(N)=O)C(=O)N[C@@H](CC(=O)O)C(=O)N[C@@H](Cc1ccccc1)C(=O)N[C@H](C(=O)N[C@@H](CC(N)=O)C(=O)N[C@@H](Cc1c[nH]c2ccccc12)C(=O)N[C@@H](CC(C)C)C(=O)N[C@@H](CC(C)C)C(=O)N[C@@H](C)C(=O)N[C@@H](CCC(N)=O)C(=O)N[C@@H](CCCCN)C(N)=O)C(C)C)[C@@H](C)CC) [AT107 [hGIP(3-30)NH2[T5W; D15E; H18A]-C16/16]] | 76.9 | 3.1 | 5220 | 186 |  |  |  |  |  | 
4 | EGTFISDYSIAMEK(Palmitoyl)IAQQDFVNWLLAQK-NH2 (N-terminus assumed; SMILES CCCCCCCCCCCCCCCC(=O)NCCCC[C@H](NC(=O)[C@H](CCC(=O)O)NC(=O)[C@H](CCSC)NC(=O)[C@H](C)NC(=O)[C@@H](NC(=O)[C@H](CO)NC(=O)[C@H](Cc1ccc(O)cc1)NC(=O)[C@H](CC(=O)O)NC(=O)[C@H](CO)NC(=O)[C@@H](NC(=O)[C@H](Cc1ccccc1)NC(=O)[C@@H](NC(=O)CNC(=O)[C@@H](N)CCC(=O)O)[C@@H](C)O)[C@@H](C)CC)[C@@H](C)CC)C(=O)N[C@H](C(=O)N[C@@H](C)C(=O)N[C@@H](CCC(N)=O)C(=O)N[C@@H](CCC(N)=O)C(=O)N[C@@H](CC(=O)O)C(=O)N[C@@H](Cc1ccccc1)C(=O)N[C@H](C(=O)N[C@@H](CC(N)=O)C(=O)N[C@@H](Cc1c[nH]c2ccccc12)C(=O)N[C@@H](CC(C)C)C(=O)N[C@@H](CC(C)C)C(=O)N[C@@H](C)C(=O)N[C@@H](CCC(N)=O)C(=O)N[C@@H](CCCCN)C(N)=O)C(C)C)[C@@H](C)CC) [AT131 [hGIP(3-30)NH2[D15E; H18A]-C16/16]] | 65 | 1.1 | 6510 | 49 |  |  |  |  |  | 
5 | TFISDYSIAMDKIHQQDFVNWLLK(C16 diacid)QK-NH2 (N-terminus assumed; SMILES CC[C@H](C)[C@H](NC(=O)[C@H](CO)NC(=O)[C@H](Cc1ccc(O)cc1)NC(=O)[C@H](CC(=O)O)NC(=O)[C@H](CO)NC(=O)[C@@H](NC(=O)[C@H](Cc1ccccc1)NC(=O)[C@@H](N)[C@@H](C)O)[C@@H](C)CC)C(=O)N[C@@H](C)C(=O)N[C@@H](CCSC)C(=O)N[C@@H](CC(=O)O)C(=O)N[C@@H](CCCCN)C(=O)N[C@H](C(=O)N[C@@H](Cc1c[nH]cn1)C(=O)N[C@@H](CCC(N)=O)C(=O)N[C@@H](CCC(N)=O)C(=O)N[C@@H](CC(=O)O)C(=O)N[C@@H](Cc1ccccc1)C(=O)N[C@H](C(=O)N[C@@H](CC(N)=O)C(=O)N[C@@H](Cc1c[nH]c2ccccc12)C(=O)N[C@@H](CC(C)C)C(=O)N[C@@H](CC(C)C)C(=O)N[C@@H](CCCCNC(=O)CCCCCCCCCCCCCCC(=O)O)C(=O)N[C@@H](CCC(N)=O)C(=O)N[C@@H](CCCCN)C(N)=O)C(C)C)[C@@H](C)CC) [AT188 [hGIP(5-30)NH2[A28K]-C16diacid/28]] |  |  |  |  | 6.8 | 186 | -6.73 log(M) | 462 | 144 | 3.2
6 | TFISDYSIAMDKIHQQDFVNWLLAK(C16 diacid)K-NH2 (N-terminus assumed; SMILES CC[C@H](C)[C@H](NC(=O)[C@H](CO)NC(=O)[C@H](Cc1ccc(O)cc1)NC(=O)[C@H](CC(=O)O)NC(=O)[C@H](CO)NC(=O)[C@@H](NC(=O)[C@H](Cc1ccccc1)NC(=O)[C@@H](N)[C@@H](C)O)[C@@H](C)CC)C(=O)N[C@@H](C)C(=O)N[C@@H](CCSC)C(=O)N[C@@H](CC(=O)O)C(=O)N[C@@H](CCCCN)C(=O)N[C@H](C(=O)N[C@@H](Cc1c[nH]cn1)C(=O)N[C@@H](CCC(N)=O)C(=O)N[C@@H](CCC(N)=O)C(=O)N[C@@H](CC(=O)O)C(=O)N[C@@H](Cc1ccccc1)C(=O)N[C@H](C(=O)N[C@@H](CC(N)=O)C(=O)N[C@@H](Cc1c[nH]c2ccccc12)C(=O)N[C@@H](CC(C)C)C(=O)N[C@@H](CC(C)C)C(=O)N[C@@H](C)C(=O)N[C@@H](CCCCNC(=O)CCCCCCCCCCCCCCC(=O)O)C(=O)N[C@@H](CCCCN)C(N)=O)C(C)C)[C@@H](C)CC) [AT189 [hGIP(5-30)NH2[Q29K]-C16diacid/29]] |  |  |  |  | 3 | 83.2 | -7.08 log(M) | 276 | 85.5 | 3.2
7 | {C16 diacid}-TFISDYSIAMDKIHQQDFVNWLLAQK-NH2 (SMILES CC[C@H](C)[C@H](NC(=O)[C@H](CO)NC(=O)[C@H](Cc1ccc(O)cc1)NC(=O)[C@H](CC(=O)O)NC(=O)[C@H](CO)NC(=O)[C@@H](NC(=O)[C@H](Cc1ccccc1)NC(=O)[C@@H](NC(=O)CCCCCCCCCCCCCCC(=O)O)[C@@H](C)O)[C@@H](C)CC)C(=O)N[C@@H](C)C(=O)N[C@@H](CCSC)C(=O)N[C@@H](CC(=O)O)C(=O)N[C@@H](CCCCN)C(=O)N[C@H](C(=O)N[C@@H](Cc1c[nH]cn1)C(=O)N[C@@H](CCC(N)=O)C(=O)N[C@@H](CCC(N)=O)C(=O)N[C@@H](CC(=O)O)C(=O)N[C@@H](Cc1ccccc1)C(=O)N[C@H](C(=O)N[C@@H](CC(N)=O)C(=O)N[C@@H](Cc1c[nH]c2ccccc12)C(=O)N[C@@H](CC(C)C)C(=O)N[C@@H](CC(C)C)C(=O)N[C@@H](C)C(=O)N[C@@H](CCC(N)=O)C(=O)N[C@@H](CCCCN)C(N)=O)C(C)C)[C@@H](C)CC) [AT137 [hGIP(5-30)NH2-C16diacid/5]] |  |  |  |  | 3.7 | 102 | -6.99 log(M) | 117 | 59.3 | 2
8 | TFISDYSIAMDK(C16 diacid)IHQQDFVNWLLAQK-NH2 (N-terminus assumed; SMILES CC[C@H](C)[C@H](NC(=O)[C@H](CO)NC(=O)[C@H](Cc1ccc(O)cc1)NC(=O)[C@H](CC(=O)O)NC(=O)[C@H](CO)NC(=O)[C@@H](NC(=O)[C@H](Cc1ccccc1)NC(=O)[C@@H](N)[C@@H](C)O)[C@@H](C)CC)C(=O)N[C@@H](C)C(=O)N[C@@H](CCSC)C(=O)N[C@@H](CC(=O)O)C(=O)N[C@@H](CCCCNC(=O)CCCCCCCCCCCCCCC(=O)O)C(=O)N[C@H](C(=O)N[C@@H](Cc1c[nH]cn1)C(=O)N[C@@H](CCC(N)=O)C(=O)N[C@@H](CCC(N)=O)C(=O)N[C@@H](CC(=O)O)C(=O)N[C@@H](Cc1ccccc1)C(=O)N[C@H](C(=O)N[C@@H](CC(N)=O)C(=O)N[C@@H](Cc1c[nH]c2ccccc12)C(=O)N[C@@H](CC(C)C)C(=O)N[C@@H](CC(C)C)C(=O)N[C@@H](C)C(=O)N[C@@H](CCC(N)=O)C(=O)N[C@@H](CCCCN)C(N)=O)C(C)C)[C@@H](C)CC, also called AT140 [hGIP(5-30)-C16-diacid/16]) [AT140 [hGIP(5-30)NH2-C16diacid/16]] |  |  |  |  | 7.4 | 204 | -6.69 log(M) | 3280 | 2160 | 1.5
9 | Palmitoyl-EGTFISDYSIAMDKIHQQDFVNWLLAQK-NH2 [AT104 [hGIP(3-30)NH2-C16/3]] |  |  | 75 | 4.9 |  |  |  |  |  | 
10 | Myristoyl-EGTFISDYSIAMDKIHQQDFVNWLLAQK-NH2 [AT110 [hGIP(3-30)NH2-C14/3]] |  |  | 55 | 5.2 |  |  |  |  |  | 
11 | Stearoyl-EGTFISDYSIAMDKIHQQDFVNWLLAQK-NH2 [AT113 [hGIP(3-30)NH2-C18/3]] |  |  | 41400 | 16400 |  |  |  |  |  | 
12 | EGTFISDYSIAMDK(Lauroyl)IHQQDFVNWLLAQK-NH2 [AT102 [hGIP(3-30)NH2-C12/16]] |  |  | 59.1 | 6.1 |  |  |  |  |  | 
